Experiments:
[1] = test system: K^HB-RWDM^Dsn1Δ257_Δhead1; assay: ITC, Dsn1 peptide titrated into head 1-deleted complex; format: binding, S. cerevisiae; settings: 25°C, 25 mM HEPES pH 7.5, 100 mM NaCl, 1 mM TCEP, syringe 0.3 mM, cell 0.025 mM, two experiments
[2] = test system: K^HB-RWDM^Dsn1Δ257_Mis12-3A; assay: ITC, Dsn1 peptide titrated into Mis12-3A mutant complex; format: binding, S. cerevisiae; settings: ratio of ITC KD values, Mis12-3A mutant complex versus K^HB-RWDM^Dsn1Δ257
Protocol: Dsn1^228–254 and Dsn1^228–254,S240E,S250E peptides were synthesized by Alta BioScience with N-terminal acetylation and C-terminal GSAW extension and amidation. The final sequence of Dsn1^228–254 was […], and Dsn1^228–254,S240E,S250E was […]. All protein complexes and peptides used in a given experiment were dialyzed for a minimum of 16 h and/or buffer-exchanged by size-exclusion chromatography into the same batch of ITC buffer (25 mM HEPES, pH 7.5, 100 mM NaCl, 1 mM TCEP). All experiments were performed using an Auto-iTC200 instrument (Malvern Instruments) at 25°C. In each experiment, 360 μl of protein complex was pipetted into the calorimeter cell. The protein complex loaded into the calorimeter cell contained Knl1c:Mis12c^Mtw1c with Knl1^Spc105_HB-RWD and Dsn1^Δ1–257 and either wild-type Mis12^Mtw1 (K^HB-RWDM ^Dsn1Δ257) or Mis12^Mtw1_E69A,E73A,E77A mutant (K^HB-RWDM ^Dsn1Δ257_Mis12-3A). Wild-type constructs of all other Knl1c and Mis12c^Mtw1c subunits were included. Titration of either the Dsn1^228–254 or Dsn1^228-254,S240E,S250E peptide into the cell was then performed by an initial injection of 0.5 μl, followed by 19 further injections of 2.0 μl each. […] Titrations were performed in duplicate or triplicate, and reported KD and n values were calculated as an average from all replicate results.

[3] = molecular target: Knl1c:Mis12c^Mtw1c complex K^HB-RWDM^Dsn1Δ257_Mis12-3A (K^HB-RWDM^Dsn1Δ257 containing mutant … (S. cerevisiae, UniProt P53148 445-917)); Q04431 1-385; P40568 258-576; P39731 1-289; P47149 1-201; …, E69A | E73A | E77A (construct name; the text of the results says Asp77)); assay: ITC
[4] = molecular target: T1, Knl1c:Mis12c^Mtw1c complex K^HB-RWDM^Dsn1Δ226-2E (Dsn1 residues 1–226 deleted, with S240E and S250E … (S. cerevisiae, UniProt P53148 445-917; Q04431 1-385; P40568 227-576; P39731 1-289; P47149 1-201; …, S240E | S250E); assay: SEC; 4 μM Knl1c:Mis12c^Mtw1c complex mixed with 4 μM CENP-C^Mif2_1-63 or CENP-QU in KMN buffer, 30 min on ice; Superose 6 3.2/300 in 20 mM HEPES pH 7.5, 150 mM NaCl, 1 mM TCEP; fractions on SDS-PAGE; settings: both partners purified
T1 construct: Knl1^Spc105_HB-RWD: Knl1^Spc105, S. cerevisiae S288c, residues 445-917; ZWINT^Kre28, S. cerevisiae S288c; no truncation stated; Dsn1^Δ1–226,S240E,S250E: Dsn1, S. cerevisiae S288c, residues 1-226 deleted, phosphomimetic mutations; Mis12^Mtw1, S. cerevisiae S288c; Nnf1, S. cerevisiae S288c; Nsl1, S. cerevisiae S288c; also called K^HB-RWDM^Dsn1Δ226,S240E,S250E; source: High-5 insect cells …

[5] = molecular target: T2, Knl1c:Mis12c^Mtw1c complex K^HB-RWDM^2E (full-length Dsn1 with S240E and S250E phosphomimetic mutations) (S. cerevisiae, UniProt P53148 445-917; Q04431 1-385; P40568 1-576; P39731 1-289; P47149 1-201; Q12143 …, S240E | S250E); assay: as above; settings: both partners purified
T2 construct: Knl1^Spc105_HB-RWD: Knl1^Spc105, S. cerevisiae S288c, residues 445-917; ZWINT^Kre28, S. cerevisiae S288c; no truncation stated; Dsn1^S240E,S250E: full-length Dsn1, S. cerevisiae S288c, with phosphomimetic mutations; Mis12^Mtw1, S. cerevisiae S288c; Nnf1, S. cerevisiae S288c; Nsl1, S. cerevisiae S288c; also called KM^2E; K^HB-RWDM^S240E,S250E; source: High-5 insect cells (baculovirus), purified …

[6] = molecular target: T3, Knl1c:Mis12c^Mtw1c complex K^HB-RWDM^Dsn1Δ257 (Knl1^Spc105 residues 1–444 and Dsn1 residues 1–257 deleted) (S. cerevisiae, UniProt P53148 445-917; Q04431 1-385; P40568 258-576; P39731 1-289; P47149 1-201; …); assay: as above; settings: both partners purified
T3 construct: Knl1^Spc105_HB-RWD: Knl1^Spc105, S. cerevisiae S288c, residues 445-917; ZWINT^Kre28, S. cerevisiae S288c; no truncation stated; Mis12^Mtw1, S. cerevisiae S288c; wild-type, no truncation stated; Nnf1, S. cerevisiae S288c; Nsl1, S. cerevisiae S288c; source: High-5 insect cells (two baculoviruses), purified (Strep-Tactin, SEC); copies: + + + + +

K^HB-RWDM^Dsn1Δ226 = assay: analytical SEC reconstitution with K^HB-RWDM^Dsn1Δ226; format: binding, S. cerevisiae; settings: Superose 6 3.2/300, 4 μM each, pH 7.5, Dsn1 residues 1–226 deleted
Protocol: (§1) To test the effect of deleting or mutating regions of the Dsn1 N-terminal disordered domain on Mis12c^Mtw1c auto-inhibition, 4 μM concentrations of Knl1c:Mis12c^Mtw1c complexes containing Knl1^Spc105_HB-RWD and different Dsn1 constructs were mixed with 4 μM concentrations of either CENP-C^Mif2_1-63 or CENP-QU in KMN buffer. Knl1c:Mis12c^Mtw1c complexes used contained one of the following Dsn1 constructs: K^HB-RWDM, contained full-length and wild-type Dsn1; K^HB-RWDM^S240E,S250E, contained Dsn1^S240E,250E; K^HB-RWDM^Dsn1Δ226, contained Dsn1^Δ1–226; K^HB-RWDM^Dsn1Δ257, contained Dsn1^Δ1–257; K^HB-RWDM^Dsn1Δ226,S240E,S250E, contained Dsn1^Δ1–226,S240E,S250E. Protein mixtures were incubated together on ice for 30 min to attempt to reconstitute a protein complex. 100 μl of individual proteins or protein complexes or reconstitution mixtures was loaded onto a Superose 6 3.2/300 size-exclusion chromatography column (Cytiva) equilibrated in (20 mM HEPES, pH 7.5, 150 mM NaCl, 1 mM TCEP), and 100 μl eluate fractions were collected. Aliquots of each indicated eluate fraction were mixed 1:1 (volume/volume) with 2xLDS-PAGE loading buffer supplied by Thermo Fisher Scientific, supplemented with DTT, boiled for 3 min at 95°C, and analyzed by SDS-PAGE.

K^HB-RWDM^2E = assay: analytical SEC reconstitution with K^HB-RWDM^2E; format: binding, S. cerevisiae; settings: Superose 6 3.2/300, 4 μM each, pH 7.5, full-length Dsn1 S240E,S250E
Protocol: as §1

K^HB-RWDM^Dsn1Δ257 = assay: analytical SEC reconstitution with K^HB-RWDM^Dsn1Δ257; format: binding, S. cerevisiae; settings: Superose 6 3.2/300, 4 μM each, pH 7.5, Dsn1 residues 1–257 deleted
Protocol: as §1

KM2E = assay: SPR, binding to KM2E (review history, removed from manuscript); design: species or system S. cerevisiae; settings: data removed from manuscript, review history only
K^HB-RWDM^Dsn1Δ226-2E = assay: analytical SEC reconstitution with K^HB-RWDM^Dsn1Δ226-2E; format: binding, S. cerevisiae; settings: Superose 6 3.2/300, 4 μM each, pH 7.5, Dsn1 Δ1–226,S240E,S250E
Protocol: as §1

K^HB-RWDM = assay: analytical SEC reconstitution with K^HB-RWDM; format: binding, S. cerevisiae; settings: Superose 6 3.2/300, 4 μM each, 20 mM HEPES pH 7.5, 150 mM NaCl, 1 mM TCEP, 30 min on ice
Protocol: as §1

Molecule: Ac-PHYIQRTRERKKSIGSQRGRRLSMLASGSAW-NH2 [Dsn1^228-254]
- binding (ITC) [1]: did not bind
- increase of KD versus K^HB-RWDM^Dsn1Δ257 [2]: threefold

B1: Dsn1^228–254 peptide (peptide)
peptide: Ac-PHYIQRTRERKKSIGSQRGRRLSMLASGSAW-NH2
- Kd [3]: 4060 nM

B2: CENP-C^Mif2 residues 1–63 (CENP-C^Mif2_1–63) (domain or fragment, S. cerevisiae, UniProt P35201 1-63, looked up)
chain: MDYMKLGLKSRKTGIDVKQDIPKDEYSMENIDDFFKDDETSLISMRRKSRRKSSLFLPSTLNG
notes: CENP-C^Mif2, S. cerevisiae S288c, residues 1-63; source: E. coli BL-21 CodonPlus-RIL, purified (HisTrap, Ulp1 cleavage, reverse IMAC, Resource S, SEC); not shown: 6xHis-SUMO, N-terminal, cleaved
- binding result [4]: binds
- binding result [5]: binds
- binding result [6]: binds

B3: CENP-C^Mif2_1-63: recombinant N-terminal fragment of S. cerevisiae CENP-C^Mif2 comprising residues 1–63 (protein)
chain: MDYMKLGLKSRKTGIDVKQDIPKDEYSMENIDDFFKDDETSLISMRRKSRRKSSLFLPSTLNG
modifications: left off: 6xHis-SUMO, N-terminal, cleaved
- binding by SEC (K^HB-RWDM^Dsn1Δ226): did not bind
- binding by SEC (K^HB-RWDM^2E): sufficient to abolish Mis12c^Mtw1c auto-inhibition
- binding by SEC (K^HB-RWDM^2E; listed as CENP-C (residues 1-63)): bound KM2E
- binding by SEC (K^HB-RWDM^Dsn1Δ257): did interact
- Kd (KM2E): 260 nM
- binding by SEC (K^HB-RWDM^Dsn1Δ226-2E): sufficient to abolish Mis12c^Mtw1c auto-inhibition
- binding by SEC (K^HB-RWDM; full-length wild-type Dsn1): did not bind
- binding by SEC (K^HB-RWDM; full-length wild-type Dsn1, listed as CENP-C N-terminus (residues 1-63)): did not

Source: publication PMC13065467, “Assembly and phosphoregulatory mechanisms of the budding yeast outer kinetochore KMN complex” (The Journal of Cell Biology, 2026)
